Measured values as given in doi:10.1101/2021.09.14.460262 (bioRxiv, 2021).

B1: recombinant full length His6-BID (natural protein, UniProt P70444 1-195, looked up)
chain: MDSEVSNGSGLGAEHITDLLVFGFLQSSGCTRQELEVLGRELPVQAYWEADLEDELQTDGSQASRSFNQGRIEPDSESQEEIIHNIARHLAQIGDEMDHNIQPTLVRQLAAQFMNGSLSEEDKRNCLAKALDEVKTAFPRDMENDKAMLIMTMLLAKKVASHAPSLLRDVFHTTVNFINQNLFSYVRNLVRNEMD

Experiments:
[1] = target: mVDAC1 labelled with Alexa Fluor 532 C5-maleimide (UniProt Q60932); assay: MST
[2] = target: mVDAC1 labelled with Alexa Fluor 532 C5-maleimide (UniProt Q60932 14-296, Alexa Fluor 532 C5-maleimide label); assay: MST
mVDAC1 labelled with Alexa Fluor 532 C5-maleimide (UniProt Q60932 14-296, Alexa Fluor 532 C5-maleimide label), sequence (Q60932 14-296): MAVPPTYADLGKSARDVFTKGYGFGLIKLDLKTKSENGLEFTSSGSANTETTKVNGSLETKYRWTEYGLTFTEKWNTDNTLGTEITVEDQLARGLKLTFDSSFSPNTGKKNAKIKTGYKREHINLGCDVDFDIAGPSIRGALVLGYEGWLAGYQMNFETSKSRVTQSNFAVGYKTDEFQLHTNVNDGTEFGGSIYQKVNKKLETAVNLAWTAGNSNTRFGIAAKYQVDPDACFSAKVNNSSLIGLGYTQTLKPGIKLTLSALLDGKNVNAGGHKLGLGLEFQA

mVDAC1 labelled with Alexa Fluor 532 C5-maleimide (UniProt Q60932), sequence (Q60932 14-296): as above

Row | Molecule | Kd [1] [µM] | Kd [2] [µM]
1 | caspase 8-cleaved recombinant BID (His-rtBID) (domain or fragment) | 37.1 | 
2 | B1 |  | 1420
